Measurements as given in the supplement of paper PMC10126150.
± gives the standard deviation of the averaged measurements.

System: ATP
Test: switch fluorescence ratio, 500 uM ATP over buffer (Cy3 cluster intensity, sum of 5 cycles each) (fold (ratio)); higher = stronger signal-on switching upon ATP binding; sequences stand for … in TCGTCGGCAGCGTCAGATGTGTATAAGAGACAGTTTTTTTTTTTTTTTTTTTTTTTTT…TC
Conditions: aptamer strand: ATP DNA aptamer (quencher-CACCTGGGGGAGTATTGCGGAGGAAGG + anchor), 100 nM annealed; ATP concentration: 500 uM
Method in brief: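 After annealing to 100 nM quencher-labelled ATP aptamer, Cy3-labelled switching-strand clusters on a modified Illumina MiSeq flow-cell were imaged in selection buffer. A second image followed after 15 min with 500 uM ATP at 22 °C, and five such buffer/ATP cycles were done, each separated by NaOH stripping and re-annealing. The fluorescence ratio, averaged per switch-domain sequence, is summed target-cycle over summed buffer-cycle Cy3 intensity per cluster, with clusters outside 100-1000 RFU excluded.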
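Note: ATP exposure 15 min at 22 °C before imaging.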

With GATGGGGTAG the switch fluorescence ratio was 0.994 ± 0.039.
In the case of GATGGGTGAC, the switch fluorescence ratio is reported as 0.992 ± 0.024.
In the case of GATGGTAGTC, the switch fluorescence ratio is reported as 0.994 ± 0.027.
Sequence GATGGTGAAA has a switch fluorescence ratio of 0.975 ± 0.039.
GATGGTGTTT showed a switch fluorescence ratio of 1 ± 0.034.
Work on GATGTAAGTG yielded a switch fluorescence ratio of 0.972 ± 0.02.
For GATGTAATTG, the switch fluorescence ratio was 0.9822 ± 0.0094.
GATGTACGCA showed a switch fluorescence ratio of 0.973 ± 0.075.
GATGTAGACT was tested, and the switch fluorescence ratio was 0.9818 ± 0.0033.
In the case of GATGTATAAA, the switch fluorescence ratio is reported as 1.0015 ± 0.00099.
GATGTATGGA was tested, and the switch fluorescence ratio was 0.997 ± 0.027.
GATGTATGGG was tested, and the switch fluorescence ratio was 0.984 ± 0.015.
GATGTGAGGC showed a switch fluorescence ratio of 1.14 ± 0.046.
Work on GATGTGCAGA yielded a switch fluorescence ratio of 0.959 ± 0.038.
With GATGTGCAGG the switch fluorescence ratio was 0.9915 ± 0.0084.
Sequence GATGTGGTCT has a switch fluorescence ratio of 1.014 ± 0.0075.
For GATGTGTCCG, the switch fluorescence ratio was 0.956 ± 0.086.
In the case of GATGTGTGGC, the switch fluorescence ratio is reported as 0.974 ± 0.022.
In the case of GATGTTAGGG, the switch fluorescence ratio is reported as 0.983 ± 0.026.
In the case of GATGTTCGGC, the switch fluorescence ratio is reported as 1.05 ± 0.037.
Work on GATGTTGGGA yielded a switch fluorescence ratio of 0.989 ± 0.016.
With GATTAAATAC the switch fluorescence ratio was 1.24 ± 0.064.
Work on GATTAAGAAT yielded a switch fluorescence ratio of 1 ± 0.027.
GATTAGAAGG showed a switch fluorescence ratio of 1 ± 0.026.
In the case of GATTAGGGTG, the switch fluorescence ratio is reported as 1.01 ± 0.026.
Work on GATTATAAGG yielded a switch fluorescence ratio of 1.007 ± 0.01.
Work on GATTATAAGT yielded a switch fluorescence ratio of 0.99 ± 0.017.
Work on GATTATATGG yielded a switch fluorescence ratio of 1 ± 0.039.
GATTATATTT was tested, and the switch fluorescence ratio was 0.997 ± 0.045.
For GATTATCTGG, the switch fluorescence ratio was 0.984 ± 0.025.
For GATTATGTTA, the switch fluorescence ratio was 0.9772 ± 0.007.
Work on GATTATTTTC yielded a switch fluorescence ratio of 1.03 ± 0.061.
GATTATTTTT showed a switch fluorescence ratio of 0.994 ± 0.028.
With GATTCCGTCC the switch fluorescence ratio was 1.177 ± 0.0046.
Work on GATTCGTCGG yielded a switch fluorescence ratio of 1.01 ± 0.021.
GATTGAAGCC gave a switch fluorescence ratio of 0.962 ± 0.064.
GATTGAGATT showed a switch fluorescence ratio of 0.981 ± 0.033.
For GATTGAGCCC, the switch fluorescence ratio was 0.971 ± 0.037.
Work on GATTGAGGAG yielded a switch fluorescence ratio of 0.981 ± 0.03.
For GATTGAGGGA, the switch fluorescence ratio was 1.01 ± 0.016.
GATTGAGGGG was tested, and the switch fluorescence ratio was 1.01 ± 0.017.
Sequence GATTGAGTTT has a switch fluorescence ratio of 0.9866 ± 0.0089.
Sequence GATTGCATGG has a switch fluorescence ratio of 1.02 ± 0.013.
GATTGCTCGT showed a switch fluorescence ratio of 0.975 ± 0.028.
GATTGCTTTC was tested, and the switch fluorescence ratio was 1.02 ± 0.023.
Work on GATTGGGACT yielded a switch fluorescence ratio of 0.975 ± 0.027.
For GATTGGGAGC, the switch fluorescence ratio was 1.01 ± 0.037.
With GATTGGGAGG the switch fluorescence ratio was 1.03 ± 0.034.
GATTGGGCCA showed a switch fluorescence ratio of 0.996 ± 0.017.
GATTGGGGGG showed a switch fluorescence ratio of 1 ± 0.029.
Sequence GATTGGGTAG has a switch fluorescence ratio of 0.999 ± 0.02.
For GATTGGGTGA, the switch fluorescence ratio was 0.972 ± 0.011.
GATTGGTACT showed a switch fluorescence ratio of 1 ± 0.02.
In the case of GATTGTTTTA, the switch fluorescence ratio is reported as 1.02 ± 0.016.
Work on GATTTAAAGC yielded a switch fluorescence ratio of 0.984 ± 0.034.
GATTTACAGC gave a switch fluorescence ratio of 1.02 ± 0.054.
For GATTTAGTAC, the switch fluorescence ratio was 1.01 ± 0.067.
Work on GATTTCAGTG yielded a switch fluorescence ratio of 0.974 ± 0.023.
GATTTCATCT gave a switch fluorescence ratio of 0.995 ± 0.032.
GATTTCGGTC was tested, and the switch fluorescence ratio was 1.05 ± 0.056.
Sequence GATTTGATGG has a switch fluorescence ratio of 0.987 ± 0.045.
GATTTGGAAT showed a switch fluorescence ratio of 0.986 ± 0.037.
In the case of GATTTGGATT, the switch fluorescence ratio is reported as 0.993 ± 0.012.
Work on GATTTGGTAG yielded a switch fluorescence ratio of 1 ± 0.023.
GATTTGTCGT gave a switch fluorescence ratio of 0.986 ± 0.022.
GATTTTACGT was tested, and the switch fluorescence ratio was 1.021 ± 0.0067.
GATTTTAGTG gave a switch fluorescence ratio of 0.969 ± 0.015.
Work on GATTTTCATG yielded a switch fluorescence ratio of 1 ± 0.013.
GATTTTGCCG showed a switch fluorescence ratio of 1.11 ± 0.1.
Work on GATTTTGTGT yielded a switch fluorescence ratio of 0.98 ± 0.043.
For GATTTTTATT, the switch fluorescence ratio was 0.988 ± 0.025.
Work on GATTTTTCAT yielded a switch fluorescence ratio of 1 ± 0.034.
With GATTTTTTCG the switch fluorescence ratio was 0.997 ± 0.01.
GATTTTTTGG gave a switch fluorescence ratio of 0.991 ± 0.034.
Sequence GCAAAAAAAC has a switch fluorescence ratio of 1.02 ± 0.067.
Sequence GCAAAAGGAG has a switch fluorescence ratio of 1 ± 0.059.
Work on GCAAAGGGCG yielded a switch fluorescence ratio of 1.03 ± 0.034.
Work on GCAAAGGGGG yielded a switch fluorescence ratio of 0.9758 ± 0.006.
GCAACCCGGA gave a switch fluorescence ratio of 1.01 ± 0.012.
Sequence GCAACCCGGT has a switch fluorescence ratio of 1.028 ± 0.0037.
For GCAACTTCGG, the switch fluorescence ratio was 0.992 ± 0.016.
In the case of GCAAGAGGGG, the switch fluorescence ratio is reported as 1.06 ± 0.039.
Sequence GCAAGAGTGG has a switch fluorescence ratio of 1 ± 0.034.
With GCAAGATTCA the switch fluorescence ratio was 1 ± 0.021.
Sequence GCAAGGCGAG has a switch fluorescence ratio of 1.3 ± 0.031.
In the case of GCAAGGGGAT, the switch fluorescence ratio is reported as 1.06 ± 0.11.
GCAAGGTTTT gave a switch fluorescence ratio of 0.979 ± 0.027.
GCAAGTGGTG was tested, and the switch fluorescence ratio was 1.02 ± 0.03.
GCAATCTGGG gave a switch fluorescence ratio of 1.38 ± 0.079.
For GCAATGAGGG, the switch fluorescence ratio was 1.14 ± 0.034.
GCAATGGCAT was tested, and the switch fluorescence ratio was 0.987 ± 0.03.
Sequence GCAATTAAAG has a switch fluorescence ratio of 1.12 ± 0.14.
With GCAATTAATG the switch fluorescence ratio was 1 ± 0.015.
In the case of GCAATTCTAC, the switch fluorescence ratio is reported as 3.085 ± 0.025.
Work on GCAATTGAGT yielded a switch fluorescence ratio of 0.997 ± 0.036.
With GCAATTGGTC the switch fluorescence ratio was 1.25 ± 0.06.
GCAATTTGAT showed a switch fluorescence ratio of 1.01 ± 0.02.
GCACATAGGG showed a switch fluorescence ratio of 1.02 ± 0.011.
Sequence GCACATGAGA has a switch fluorescence ratio of 1.02 ± 0.021.
For GCACCATTCC, the switch fluorescence ratio was 1.72 ± 0.07.
Work on GCACCCCGCC yielded a switch fluorescence ratio of 1.33 ± 0.036.
Sequence GCACCGGGGC has a switch fluorescence ratio of 0.971 ± 0.015.
GCACGAGTGC gave a switch fluorescence ratio of 0.97 ± 0.02.
Sequence GCACGCCGAG has a switch fluorescence ratio of 1.01 ± 0.012.
For GCACGCCTGG, the switch fluorescence ratio was 1.0842 ± 0.00097.
GCACGGGCCC gave a switch fluorescence ratio of 0.99 ± 0.028.
GCACGGGGGA showed a switch fluorescence ratio of 0.9884 ± 0.0077.
Sequence GCACGTAGCG has a switch fluorescence ratio of 1.06 ± 0.046.
GCACTCAGGC showed a switch fluorescence ratio of 0.994 ± 0.03.
For GCACTCGGTG, the switch fluorescence ratio was 1.01 ± 0.048.
For GCACTGGT, the switch fluorescence ratio was 1.04 ± 0.062.
For GCACTGGTAT, the switch fluorescence ratio was 1.05 ± 0.024.
Sequence GCACTTCCCT has a switch fluorescence ratio of 1.19 ± 0.014.
GCAGATGGTT gave a switch fluorescence ratio of 1.01 ± 0.015.
With GCAGATTTTG the switch fluorescence ratio was 0.98 ± 0.038.
GCAGCAGGGG gave a switch fluorescence ratio of 1.84 ± 0.23.
With GCAGCCCCTG the switch fluorescence ratio was 1.02 ± 0.048.
GCAGCGTTCT was tested, and the switch fluorescence ratio was 1.04 ± 0.069.
For GCAGCTGGG, the switch fluorescence ratio was 1.03 ± 0.039.
Work on GCAGGATCCG yielded a switch fluorescence ratio of 0.99684 ± 0.00077.
GCAGGATGAA was tested, and the switch fluorescence ratio was 0.97 ± 0.042.
In the case of GCAGGGATGC, the switch fluorescence ratio is reported as 1 ± 0.057.
GCAGGGGACG was tested, and the switch fluorescence ratio was 1.05 ± 0.015.
In the case of GCAGGGGCCC, the switch fluorescence ratio is reported as 1.02 ± 0.027.
GCAGGGGGCC showed a switch fluorescence ratio of 1.4 ± 0.63.
In the case of GCAGGGTGCG, the switch fluorescence ratio is reported as 1 ± 0.032.
GCAGGGTGGC showed a switch fluorescence ratio of 1 ± 0.062.
In the case of GCAGGTGACT, the switch fluorescence ratio is reported as 1.33 ± 0.077.
Work on GCAGGTTCAG yielded a switch fluorescence ratio of 0.975 ± 0.021.
Sequence GCAGGTTTTG has a switch fluorescence ratio of 0.987 ± 0.04.
Sequence GCAGTAAATA has a switch fluorescence ratio of 1.009 ± 0.0086.
In the case of GCAGTAGCTG, the switch fluorescence ratio is reported as 0.998 ± 0.011.
For GCAGTAGGGG, the switch fluorescence ratio was 0.989 ± 0.015.
In the case of GCAGTCAAGC, the switch fluorescence ratio is reported as 1.08 ± 0.011.
In the case of GCAGTCCGAG, the switch fluorescence ratio is reported as 1.07 ± 0.043.
Work on GCAGTCCTTT yielded a switch fluorescence ratio of 0.958 ± 0.029.
GCAGTCTGCC showed a switch fluorescence ratio of 1.02 ± 0.07.
GCAGTCTGGG gave a switch fluorescence ratio of 0.991 ± 0.01.
Sequence GCAGTGGGGG has a switch fluorescence ratio of 1 ± 0.08.
With GCAGTGGGTT the switch fluorescence ratio was 1.02 ± 0.074.
In the case of GCAGTTAAAC, the switch fluorescence ratio is reported as 1.04 ± 0.045.
GCAGTTGCTG gave a switch fluorescence ratio of 0.999 ± 0.02.
GCAGTTTTCA gave a switch fluorescence ratio of 1.04 ± 0.095.
GCATAAGGGG was tested, and the switch fluorescence ratio was 0.992 ± 0.018.
GCATAGAGCG showed a switch fluorescence ratio of 1.02 ± 0.065.
Sequence GCATAGGTTA has a switch fluorescence ratio of 1 ± 0.015.
With GCATCACGTT the switch fluorescence ratio was 1 ± 0.029.
Sequence GCATCCCGAG has a switch fluorescence ratio of 1.02 ± 0.025.
With GCATCGAGGC the switch fluorescence ratio was 1.01 ± 0.14.
In the case of GCATCTGTAG, the switch fluorescence ratio is reported as 1 ± 0.067.
Work on GCATGAAGTA yielded a switch fluorescence ratio of 0.99 ± 0.017.
Work on GCATGACCAG yielded a switch fluorescence ratio of 0.974 ± 0.026.
GCATGGAGGG was tested, and the switch fluorescence ratio was 1.01 ± 0.025.
